Measurements reported in PMC11975282.

Legend:
[1] = biological target: Apt1-Flag fusion protein (human), O75608; assay: native gel or EMSA; conditions: remark: other sources report otherwise
[2] = biological target: Apt2-Flag fusion protein (human), O95372; assay: native gel or EMSA; conditions: remark: other sources report otherwise

Row | stoichiometry N [1] | stoichiometry N [2] | Binder
1 | 2 |  | Apt1-Flag fusion protein, O75608 1-230 (enzyme) MCGNNMSTPLPAIVPAARKATAAVIFLHGLGDTGHGWAEAFAGIRSSHIKYICPHAPVRPVTLNMNVAMPSWFDIIGLSPDSQEDESGIKQAAENIKALIDQEVKNGIPSNRIILGGFSQGGALSLYTALTTQQKLAGVTALSCWLPLRASFPQGPIGGANRDISILQCHGDCDPLVPLMFGSLTVEKLKTLVNPANVTFKTYEGMMHSSCQQEMMDVKQFIDKLLPPID
2 |  | 2 | Apt2-Flag fusion protein, O95372 1-231 (enzyme) MCGNTMSVPLLTDAATVSGAERETAAVIFLHGLGDTGHSWADALSTIRLPHVKYICPHAPRIPVTLNMKMVMPSWFDLMGLSPDAPEDEAGIKKAAENIKALIEHEMKNGIPANRIVLGGFSQGGALSLYTALTCPHPLAGIVALSCWLPLHRAFPQAANGSAKDLAILQCHGELDPMVPVRFGALTAEKLRSVVTPARVQFKTYPGVMHSSCPQEMAAVKEFLEKLLPPV
